Experiment: yeast display, Sf9 membrane polyspecificity reagent, FACS + sequencing; frameworks hold sequencing errors
Method in brief: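 Nanobodies from a synthetic yeast display library (Saccharomyces cerevisiae BJ5465), induced 36–48 hours with galactose, were stained 1 hour at 4 °C with 10% biotinylated, detergent-solubilized Sf9 membrane reagent, enriched on streptavidin microbeads, then FACS-sorted. Anti-HA (expression) and streptavidin (reagent binding) fluorescence set low and high (top ~1%) gates. Polyreactivity labels come from the gate of origin. Genes were colony-PCR amplified, MiSeq 2 × 250 sequenced and filtered by CDR length.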

Sequence | polyreactivity (PSR sort gate)
QVRLVESGGGLVQAGGSLRLSCAASGRTFRIYAMGWYRQAPGKERELVAAIRWSGGTTYYADSVKGRFTISRDNAKNTVYLQMNSLKPEDTAVYYCNTNSYYEDDYWGQGTQVTVSS | high polyreactivity
QVRLVESGGGLVQAGGSLRLSCAASGSTFKTYAMGWYRQAPGKERELVAAISAGGGSTYYADSVKGRFTISRDNAKNTVYLQMYSLKPEDTAVYYCAAAYIYAGWDYEYWGQGTQVTVSS | low polyreactivity
QVWLQESGRGLLQACGSLRLSCAASGTISRDIFMGWYRQAPGKEREFVATIAQGGITNYADSVKGRFTISRDNAKNTVYLQMNSVKPGDTAVYFCAARDGNCYWFYYWGQGTQVTVSS | high polyreactivity
QYQLGESGGGLVQAGGSLRLSCAASGRIFTWNAMGWYRQAPGKERELVAAIRRGGGTYADSVKGRYTISRDNGKNTFYLQMHSLKPEDTAVYYCAATSGYYAMNYWGQGTQVTVSS | high polyreactivity
QYQLVESGGCLVQAGGTLRLRCAATGFTFKSYAMGWYRHAHGKAWELVAAISNRGGSTYYADSVKGRFTISRDNAKNSVYLQINSLKPEDNAVYYCATQYYVRPFDYWGQGTQVTVSS | high polyreactivity
QYQLVESGGGLVQAGGSLRLSCAASGRIFLVYVMGWYRQAPGKERELVADITFSGGSTYYADSVKGRFTISRDNEKNNVYLQMNSLKPEYTAVYYCAAATWSFLDYWGQGTQVTVSS | high polyreactivity
RVQLQESGGGLVQAGGTLRLSCAASGTIFIRGDMGWYRQAPGKEREFVATIDTGSNTYYADSEKGRFTISRDNAKKAVYLQMNCLKPGDTAVYYCVVDYQLSGRLWDWGQGTQVTLSS | low polyreactivity
RVQLVESGGGLVQAGGSHRLSCAASGRIFKNYAIGWYRQAPGKQRELVASITIGSTTYAESEKGRFTISRDNAKNTVYLKMNSLKREDTAVYYCAARRPRGFQGPNPWGYYYWGQGTQVTVSS | high polyreactivity
RVQLVESGGGLVQAGGSLRLSCAASGSIFLIYAMGWYRQAPGKERELVAAISTGDSTYYADSVKGRFTISRDNAKNTVYLQMNSLKPEDTAVYYCAADTYSYEVPWWSAGMDYWGQGTQVTVSS | high polyreactivity
